Drawing on the Human Domainome abundance scans (Beltran et al. 2025), this text covers abundance fitness for 40 variants.

B1: Double-stranded RNA-binding protein Staufen homolog 1, residues 183 to 249; numbered along this chain, O95793 (parent)
chain: KSEISQVFEIALKRNLPVNFEVARESGPPHMKNFVTKVSVGEFVGEGEGKSKKISKKNAAIAVLEEL

± gives the uncertainty stated by the source.

In the series the parent is B1. As to the kind of experiment: abundance fitness (aPCA) (normalised: wild type 0, dead -1); higher = more abundant; growth selection in yeast, the domain comes from the species named. To be noted: Homo sapiens.
Regarding KSEISQVFEIALKRNLPVNFEPARESGPPHMKNFVTKVSVGEFVGEGEGKSKKISKKNAAIAVLEEL [V22P], the abundance fitness is 0.056 ± 0.057.

Take KSEISQVFEIALKRNLPVNFEFARESGPPHMKNFVTKVSVGEFVGEGEGKSKKISKKNAAIAVLEEL [V22F]: the abundance fitness is -0.165 ± 0.063.

For KSEISQVFEIALKRNLPVNFECARESGPPHMKNFVTKVSVGEFVGEGEGKSKKISKKNAAIAVLEEL [V22C], the abundance fitness is -0.087 ± 0.072.

Regarding KSEISQVFEIALKRNLPVNFELARESGPPHMKNFVTKVSVGEFVGEGEGKSKKISKKNAAIAVLEEL [V22L], the abundance fitness amounted to 0.016 ± 0.043.

Take KSEISQVFEIALKRNLPVNFEYARESGPPHMKNFVTKVSVGEFVGEGEGKSKKISKKNAAIAVLEEL [V22Y]: the abundance fitness is -0.094 ± 0.067.

On to KSEISQVFEIALKRNLPVNFEEARESGPPHMKNFVTKVSVGEFVGEGEGKSKKISKKNAAIAVLEEL [V22E], for which the abundance fitness was -0.033 ± 0.054.

KSEISQVFEIALKRNLPVNFEQARESGPPHMKNFVTKVSVGEFVGEGEGKSKKISKKNAAIAVLEEL [V22Q]: the abundance fitness was -0.031 ± 0.056.

Regarding KSEISQVFEIALKRNLPVNFEHARESGPPHMKNFVTKVSVGEFVGEGEGKSKKISKKNAAIAVLEEL [V22H], the abundance fitness was -0.083 ± 0.078.

Consider KSEISQVFEIALKRNLPVNFEMARESGPPHMKNFVTKVSVGEFVGEGEGKSKKISKKNAAIAVLEEL [V22M], for which the abundance fitness is -0.081 ± 0.06.

As to KSEISQVFEIALKRNLPVNFEWARESGPPHMKNFVTKVSVGEFVGEGEGKSKKISKKNAAIAVLEEL [V22W], the abundance fitness is -0.36 ± 0.061.

Turning to KSEISQVFEIALKRNLPVNFENARESGPPHMKNFVTKVSVGEFVGEGEGKSKKISKKNAAIAVLEEL [V22N], the abundance fitness was -0.114 ± 0.068.

As to KSEISQVFEIALKRNLPVNFEAARESGPPHMKNFVTKVSVGEFVGEGEGKSKKISKKNAAIAVLEEL [V22A], the abundance fitness was -0.022 ± 0.045.

As to KSEISQVFEIALKRNLPVNFEDARESGPPHMKNFVTKVSVGEFVGEGEGKSKKISKKNAAIAVLEEL [V22D], the abundance fitness was -0.102 ± 0.069.

Take KSEISQVFEIALKRNLPVNFEKARESGPPHMKNFVTKVSVGEFVGEGEGKSKKISKKNAAIAVLEEL [V22K]: the abundance fitness worked out at 0.105 ± 0.061.

Consider KSEISQVFEIALKRNLPVNFESARESGPPHMKNFVTKVSVGEFVGEGEGKSKKISKKNAAIAVLEEL [V22S], for which the abundance fitness is -0.059 ± 0.048.

For KSEISQVFEIALKRNLPVNFERARESGPPHMKNFVTKVSVGEFVGEGEGKSKKISKKNAAIAVLEEL [V22R], the abundance fitness worked out at 0.069 ± 0.038.

As for KSEISQVFEIALKRNLPVNFEIARESGPPHMKNFVTKVSVGEFVGEGEGKSKKISKKNAAIAVLEEL [V22I], the abundance fitness was -0.005 ± 0.056.

As to KSEISQVFEIALKRNLPVNFETARESGPPHMKNFVTKVSVGEFVGEGEGKSKKISKKNAAIAVLEEL [V22T], the abundance fitness amounted to 0.034 ± 0.042.

In the case of KSEISQVFEIALKRNLPVNFEVAREQGPPHMKNFVTKVSVGEFVGEGEGKSKKISKKNAAIAVLEEL [S26Q], the abundance fitness was -0.337 ± 0.42.

Turning to KSEISQVFEIALKRNLPVNFEVAREFGPPHMKNFVTKVSVGEFVGEGEGKSKKISKKNAAIAVLEEL [S26F], the abundance fitness is -0.348 ± 0.29.

KSEISQVFEIALKRNLPVNFEVARETGPPHMKNFVTKVSVGEFVGEGEGKSKKISKKNAAIAVLEEL [S26T]: the abundance fitness was found to be 0.085 ± 0.21.

KSEISQVFEIALKRNLPVNFEVAREPGPPHMKNFVTKVSVGEFVGEGEGKSKKISKKNAAIAVLEEL [S26P]: the abundance fitness is -0.27 ± 0.45.

Regarding KSEISQVFEIALKRNLPVNFEVKRESGPPHMKNFVTKVSVGEFVGEGEGKSKKISKKNAAIAVLEEL [A23K], the abundance fitness is -0.052 ± 0.047.

Regarding KSEISQVFEIALKRNLPVNFEVERESGPPHMKNFVTKVSVGEFVGEGEGKSKKISKKNAAIAVLEEL [A23E], the abundance fitness was -0.102 ± 0.061.

Regarding KSEISQVFEIALKRNLPVNFEVYRESGPPHMKNFVTKVSVGEFVGEGEGKSKKISKKNAAIAVLEEL [A23Y], the abundance fitness was -0.086 ± 0.059.

Turning to KSEISQVFEIALKRNLPVNFEVDRESGPPHMKNFVTKVSVGEFVGEGEGKSKKISKKNAAIAVLEEL [A23D], the abundance fitness is -0.108 ± 0.058.

For KSEISQVFEIALKRNLPVNFEVCRESGPPHMKNFVTKVSVGEFVGEGEGKSKKISKKNAAIAVLEEL [A23C], the abundance fitness was -0.055 ± 0.053.

For KSEISQVFEIALKRNLPVNFEVTRESGPPHMKNFVTKVSVGEFVGEGEGKSKKISKKNAAIAVLEEL [A23T], the abundance fitness is 0.033 ± 0.04.

Consider KSEISQVFEIALKRNLPVNFEVSRESGPPHMKNFVTKVSVGEFVGEGEGKSKKISKKNAAIAVLEEL [A23S], for which the abundance fitness was -0.063 ± 0.038.

Consider KSEISQVFEIALKRNLPVNFEVIRESGPPHMKNFVTKVSVGEFVGEGEGKSKKISKKNAAIAVLEEL [A23I], for which the abundance fitness came out at 0.011 ± 0.062.

KSEISQVFEIALKRNLPVNFEVLRESGPPHMKNFVTKVSVGEFVGEGEGKSKKISKKNAAIAVLEEL [A23L]: the abundance fitness came to 0.008 ± 0.034.

As to KSEISQVFEIALKRNLPVNFEVQRESGPPHMKNFVTKVSVGEFVGEGEGKSKKISKKNAAIAVLEEL [A23Q], the abundance fitness was -0.005 ± 0.053.

With KSEISQVFEIALKRNLPVNFEVFRESGPPHMKNFVTKVSVGEFVGEGEGKSKKISKKNAAIAVLEEL [A23F], the abundance fitness was -0.121 ± 0.066.

In the case of KSEISQVFEIALKRNLPVNFEVMRESGPPHMKNFVTKVSVGEFVGEGEGKSKKISKKNAAIAVLEEL [A23M], the abundance fitness came to 0.06 ± 0.058.

KSEISQVFEIALKRNLPVNFEVHRESGPPHMKNFVTKVSVGEFVGEGEGKSKKISKKNAAIAVLEEL [A23H]: the abundance fitness amounted to 0.066 ± 0.076.

On to KSEISQVFEIALKRNLPVNFEVWRESGPPHMKNFVTKVSVGEFVGEGEGKSKKISKKNAAIAVLEEL [A23W], for which the abundance fitness was -0.141 ± 0.042.

Consider KSEISQVFEIALKRNLPVNFEVPRESGPPHMKNFVTKVSVGEFVGEGEGKSKKISKKNAAIAVLEEL [A23P], for which the abundance fitness came to 0.021 ± 0.052.

As to KSEISQVFEIALKRNLPVNFEVAYESGPPHMKNFVTKVSVGEFVGEGEGKSKKISKKNAAIAVLEEL [R24Y], the abundance fitness is -0.246 ± 0.064.

As to KSEISQVFEIALKRNLPVNFEVADESGPPHMKNFVTKVSVGEFVGEGEGKSKKISKKNAAIAVLEEL [R24D], the abundance fitness is -0.141 ± 0.081.

Take KSEISQVFEIALKRNLPVNFEVAIESGPPHMKNFVTKVSVGEFVGEGEGKSKKISKKNAAIAVLEEL [R24I]: the abundance fitness was -0.17 ± 0.09.
